Source: PMC5339894, “G196 epitope tag system: a novel monoclonal antibody, G196, recognizes the small, soluble peptide DLVPR with high affinity” (Scientific Reports, 2017)

What was measured:
[1] = system: Atf1-G196-GFP; test: Western blot analysis of fission yeast extracts; type: cell-based; conditions: C-terminally 3 × G196-tagged Atf1, mAb G196 1:2000
Excerpt: C-terminal tagging of the atf1 gene (Supplementary Fig. 1) was accomplished using the G196t2 primer. This primer contains a sequence homologous to a portion of the atf1 coding sequence, a sequence for 3 × G196-tag, and a sequence homologous to another primer, com5. In the first PCR step, two sequences flanking the translational stop codon of the atf1 gene were amplified with the primers t1 and G196t2, and with the primers t3 and t4, using the genomic DNA as a template. The GFP-kanMX cassette was also amplified with the primers com5 and com6, using pFA6a-GFP(S65T)-kanMX as a template. The three PCR products were fused together in the second PCR step with the primers t1 and t4 to produce a DNA fragment for homologous recombination.
Cells (1 × 10^8) growing exponentially in YES medium at 30 °C were harvested to obtain whole cell extracts as described elsewhere. Samples were resolved by SDS-PAGE on 7% gels, semi-dry blotted to PVDF membranes, and detected using an ECL detection system (PerkinElmer, Waltham, MA, USA). Mouse mAb G196 (1:2000) and anti-GFP rabbit polyclonal antibody (1:1000) were used as primary antibodies. HRP-conjugated goat anti-mouse antibody (1:5000, Rockland Immunochemicals) and anti-rabbit antibody (1:2000, Jackson ImmunoResearch Laboratories) were used as secondary antibodies.

[2] = system: FHG-G196-NAC1; test: immunofluorescence of GFP- and G196-tagged nuclear protein in HeLa cells; type: cell-based, human; conditions: FHG-G196-NAC1, Alexa-594 / Alexa-488 secondary
Procedure: Figure 5 Application of the G196 epitope tag system for scientific research. (a) Western blot and immunoprecipitation (IP) analysis of FLAG-HA-Emerald GFP (FHG) tagged with C-terminal G196-tag in HeLa cells using mAb G196. HeLa cells were transfected with FHG/pcDNA3 or FHG-G196/pcDNA3. After incubation for two days, the cells were lysed and subjected to Western blotting with anti-FLAG (M2) or G196 mAbs (left panel). These lysates were immunoprecipitated with anti-FLAG (M2) (lanes 7, 8) or G196 (lanes 9, 10) mAbs and subjected to Western blotting with anti-FLAG polyclonal antibody (right panel). (b) Immunofluorescence of GFP- and G196-tagged nuclear protein in HeLa cells using mAb G196. HeLa cells were transfected with FHG-G196-NAC1/pcDNA3. After incubation for two days, the cells were fixed and incubated with mAb G196 and anti-GFP polyclonal Ab, then stained with Alexa-594 anti-mouse and Alexa-488 anti-rabbit secondary antibodies. (c) Western blot and chromatin immunoprecipitation (ChIP) analysis of Atf1-G196-GFP in fission yeast using mAb G196. A DNA fragment containing the transcription factor atf1 gene fused with the G196 epitope-GFP gene was replaced with the genomic atf1 gene. Protein extracts were separated by SDS-PAGE and detected with mAb G196 and anti-GFP polyclonal antibody (left panel). […] Asterisk indicates non-specific band also detected using the second Ab alone. […]

[3] = system: Atf1-G196-GFP at the tdh1 promoter; test: chromatin immunoprecipitation (ChIP) in fission yeast; type: cell-based; conditions: promoter of tdh1 gene (CRE consensus site); 3 μL mAb G196; qPCR
Procedure: Yeast cells were grown in YES medium at 30 °C to mid-log phase. After formaldehyde crosslinking and quenching, 1 × 10^8 cells were harvested to obtain 2 mL of soluble input extract. M-280 anti-mouse sheep antibody-conjugated magnetic beads (112-02, ThermoFisher Scientific) were used for immunoprecipitation: 200 μL of the beads were washed twice with extraction buffer (50 mM HEPES-KOH (pH 7.5), 140 mM NaCl, 1 mM EDTA, 1% Triton X-100, and 0.1% sodium deoxycholate), and then incubated in 1 mL of extraction buffer containing 3 μL of mAb G196 for 1 h at 4 °C. The beads were again washed twice with extraction buffer to remove unbound antibodies and incubated for 1 h with 800 μL of input extract at 4 °C. The relative concentrations of the target sequences were determined using SYBR Premix ExTaq (RR041A, TaKaRa Bio, Shiga, Japan) and a Thermal Cycler Dice Real Time System TP800 (TaKaRa Bio), according to the manufacturer’s instructions. The primers for detecting the −1 kb region were 5′-[…]-3′ and 5′-[…]-3′, and for the tdh1 CRE region the primers were 5′-[…]-3′ and 5′-[…]-3′.

[4] = system: N- and C-terminally G196-tagged protein; test: detection of N- and C-terminally G196-tagged protein; conditions: this study and refs. 22 and 23

B1: mAb G196: mouse mAb (IgG1) raised against GST protein bacterially expressed using the pGEX-2T vector (antibody, V domains shown)
VH: QVKLQESGAELVKPGASVKLSCKASGYTFTNYWMHWVKLRPGQGFEWIGEINPSNGGSNYNEKFKRKATLTVDKSSSTAYMQLSSLTSEDSAVFYCSIWDSYFDYWGQGTTLTVSS
VL: NIVMTQSPKSMSMSVGERVTLTCKASENVVTYVSWYQQKPEQSPKLLIYGASNRYTGVPDRFTGSGSATDFTLTISSVQAEDLADYHCGQGYSYPYTFGGGTKLEIK
**Q.** For B1, which “detection of Atf1 by Western blot” value [1] is on record?
**A.** The value was “detected the Atf1 protein”.

**Q.** What about the “immunofluorescence detection of nuclear reporter protein NAC1” value [2] of the same molecule?
**A.** The value was “successfully detected the nuclear reporter protein”.

**Q.** And the “ChIP of Atf1” value [3]?
**A.** The value was “enriched the Atf1 protein at the promoter of the tdh1 gene”.

**Q.** What about the “detection of N- and C-terminally tagged protein” value [4] of the same molecule?
**A.** The value was “detected both N- and C-terminally G196-tagged protein”.
